Measurements from publication PMC2680336.

Target: Ect2 (UniProt Q9H8V3)
Assay: anti-myc IP, anti-FLAG blot
Settings: reference: wild-type FLAG-HsCYK-4; sites S157

binding against the reference: weaker
Substance: HsCYK-4 (MgcRacGAP) (from UniProt Q9H0H5) S157A
